Assay results as given in patent publication US20190359723A1 (CARSGEN THERAPEUTICS, published 2019).

T1: IL-13RA2 endogenously expressed on U251 cells (human, UniProt Q14627 27-380)
T1 construct: whole, on cells; also called U251 cells expressing IL13RA2; U251 (IL-13RA2-positive)
T1 sequence (looked up): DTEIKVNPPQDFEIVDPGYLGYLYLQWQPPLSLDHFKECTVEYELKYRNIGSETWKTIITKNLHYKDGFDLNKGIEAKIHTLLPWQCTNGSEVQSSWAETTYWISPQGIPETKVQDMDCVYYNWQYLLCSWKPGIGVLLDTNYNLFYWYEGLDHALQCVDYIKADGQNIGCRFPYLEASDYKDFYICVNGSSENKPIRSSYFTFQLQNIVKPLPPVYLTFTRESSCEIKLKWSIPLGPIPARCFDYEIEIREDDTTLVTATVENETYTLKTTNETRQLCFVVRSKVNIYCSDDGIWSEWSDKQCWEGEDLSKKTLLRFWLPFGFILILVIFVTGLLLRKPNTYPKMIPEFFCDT


Assays:
IL-13RA2 huFc [1] = molecular target: T2, IL-13RA2 huFc (human); assay: SPR (Biacore T200), ligand IL13Ra2 on the chip, scFv_Fc as analyte at 6.25 to 100 nM, 1:1 binding fit, flow 30 ul/min
T2 construct: Expressed in 293F cells, purified on protein A; also called human IL13RA2; recombinant IL-13RA2
Procedure: (§1) IL-13RA2 huFc was coated on the CMS chip by amino coupling, coated to about 500 RU, and the gradiently diluted antibodies were passed through the antigen-coated channel at a flow rate of 30 ul/min as a mobile phase. The running buffer was HBS-N and the temperature was 25° C. The experimental data was analyzed by BIAevaluation 3.2 and the kinetic curves were fitted using a 1:1 langmuir model.
(§2) Affinity was determined using the method of Example 5 using biacore T200, and the results are shown as in FIGS. 11B-11G. […] The association and dissociation constants of the antibodies are shown as in FIG. 11F.
Target sequence in this assay (chain, as listed by the source limits assumed): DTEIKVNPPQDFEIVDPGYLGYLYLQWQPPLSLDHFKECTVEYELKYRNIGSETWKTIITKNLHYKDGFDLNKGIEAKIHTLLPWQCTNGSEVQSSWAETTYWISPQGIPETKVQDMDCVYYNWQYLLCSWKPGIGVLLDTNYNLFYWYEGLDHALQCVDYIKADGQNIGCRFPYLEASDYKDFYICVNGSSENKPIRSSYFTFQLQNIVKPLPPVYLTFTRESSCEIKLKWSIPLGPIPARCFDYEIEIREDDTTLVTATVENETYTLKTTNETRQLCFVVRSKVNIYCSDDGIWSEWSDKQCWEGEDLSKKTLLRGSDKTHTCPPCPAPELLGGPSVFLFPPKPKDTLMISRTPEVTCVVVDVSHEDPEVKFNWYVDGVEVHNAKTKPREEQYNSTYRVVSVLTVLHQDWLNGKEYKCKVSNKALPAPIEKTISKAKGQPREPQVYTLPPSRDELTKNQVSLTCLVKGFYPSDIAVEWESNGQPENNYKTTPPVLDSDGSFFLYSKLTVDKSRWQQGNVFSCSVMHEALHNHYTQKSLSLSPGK

[2] = molecular target: T1, IL-13RA2 endogenously expressed on U251 …; assay: flow cytometry on U251 cells, scFv_Fc form, 5-fold dilutions from 2,000 nM, FITC anti-human IgG
Procedure: Following the method of Example 6, cells were harvested, washed once with a growth medium, and resuspended in PBS, and the cell concentration was adjusted to 4E+5 cells/ml. The gradiently diluted scFv_Fc fusion antibody was incubated with the cells for 30 minutes on ice, and the antibody was 5-fold serially diluted with 2,000 nM as the initial concentration, into 11 gradients. Then the mixture was incubated with a FITC-labeled anti-human IgG secondary antibody. After two washing steps, detection was performed using a Guava easyCyte™ HT System instrument. […] There is also a 2-8 fold increase compared with the parent antibody.

IL-13RA2 huFc [3] = molecular target: T2, IL-13RA2 huFc; assay: SPR (Biacore T200), scFv_Fc forms on IL-13RA2 huFc, summary table
Procedure: as §1, §2
Target sequence in this assay (chain, as listed by the source limits assumed): as above

IL-13RA2 huFc [4] = molecular target: T2, IL-13RA2 huFc; assay: Biacore, induced supernatant of the scFv clone; parent 31C2
Target sequence in this assay (chain, as listed by the source limits assumed): as above

IL-13RA2 huFc [5] = molecular target: T2, IL-13RA2 huFc; assay: SPR (Biacore T200), nickel-purified scFv
Procedure: as §1
Target sequence in this assay (chain, as listed by the source limits assumed): as above
Affinity purification was performed using a nickel column, affinity was measured using biacore T200, and the association and dissociation constants of the affinity matured antibodies are shown as in FIG. 10A.

IL-13RA2 huFc [6] = molecular target: T2, IL-13RA2 huFc; assay: SPR (Biacore), induced scFv supernatant; column head: Dissociation constant Kd(S-1)
Target sequence in this assay (chain, as listed by the source limits assumed): as above

IL-13RA2 huFc [7] = molecular target: T2, IL-13RA2 huFc; assay: SPR (Biacore T200), ligand IL13Ra2 on the chip, scFv_Fc as analyte at 100, 50, 25 and 6.25 nM, 1:1 binding fit, flow 30 ul/min
Procedure: as §1, §2

Binder | Kd (IL-13RA2 huFc [1]) [nM] | koff (IL-13RA2 huFc [1]) [s⁻¹] | kon (IL-13RA2 huFc [1]) [M⁻¹ s⁻¹] | EC50 [2] [nM] | Kd (IL-13RA2 huFc [3]) [nM] | koff (IL-13RA2 huFc [3]) [s⁻¹] | kon (IL-13RA2 huFc [3]) [M⁻¹ s⁻¹] | fold lower dissociation constant Kd than the parent clone (IL-13RA2 huFc [4]) [times] | Kd (IL-13RA2 huFc [5]) [nM] | koff (IL-13RA2 huFc [5]) [s⁻¹] | kon (IL-13RA2 huFc [5]) [M⁻¹ s⁻¹] | koff (IL-13RA2 huFc [6]) [s⁻¹] | Kd (IL-13RA2 huFc [7]) [nM] | koff (IL-13RA2 huFc [7]) [s⁻¹] | kon (IL-13RA2 huFc [7]) [M⁻¹ s⁻¹]
1B11 (scFv_Fc form) (Fc fusion, not shown: human Fc segment of the eukaryotic expression vector V152) scFv: EVQLLESGGGLVQPGGSLRLSCAASGFTFSRDALNWVRQAPGKGLEWVSAISGSGGSTFYADSVKGRFTISRDNSKNTLYLQMNSLRAEDTAVYYCAKVRYGWGAGAFDYWGQGTLVTVSSGGGGSGGGGSGGGGSDIQMTQSPSTLSASVGDRVTITCRASQSISSWLAWYQQKPGKAPKLLIYDASSLESGVPSRFSGSGSGTEFTLTISSLQPDDFATYYCQQYDTYPPITFGQGTKVEIK | 1.04 | 0.000263 | 252000 | 0.47 | 1.04 | 0.000263 | 253000 |  |  |  |  |  |  |  | 
1D8 (scFv) (scFv, also called clone 1D8) scFv: EVQLLESGGGLVQPGGSLRLSCAASGFTFSRYAMNWVRQAPGKGLEWVSAINASGGSTYYADSVKGRFTISRDNSKNTLYLQMNSLRAEDTAVYYCAKVRYGWGAGAFDYWGQGTLVTVSSGGGGSGGGGSGGGGSDIQMTQSPSTLSASVGDRVTITCRASQSISSWLAWYQQKPGKAPKLLIYDASSLESGVPSRFSGSGSGTEFTLTISSLQPDDFATYYCQQYDTYPPITFGQGTKVEIK |  |  |  |  |  |  |  | > 10 | 13.8 | 0.000911 | 66000 | 0.00094 |  |  | 
1H7 (scFv) (scFv, also called clone 1H7) scFv: EVQLLESGGGLVQPGGSLRLSCAASGFTFRRYAMSWVRQAPGKGLEWVSGISGSGGGTYYADSVKGRFTISRDNSKNTLYLQMNSLRAEDTAVYYCAKVRYGWGAGAFDYWGQGTLVTVSSGGGGSGGGGSGGGGSDIQMTQSPSTLSASVGDRVTITCRASQSISSWLAWYQQKPGKAPKLLIYDASSLESGVPSRFSGSGSGTEFTLTISSLQPDDFATYYCQQYDTYPPITFGQGTKVEIK |  |  |  |  |  |  |  | > 10 | 12.1 | 0.000765 | 63200 | 0.000888 |  |  | 
2C7 (scFv_Fc form) (Fc fusion, not shown: human Fc segment of the eukaryotic expression vector V152) scFv: EVQLLESGGGLVQPGGSLRLSCAASGFTFKLPAMSWVRQAPGKGLEWVSAITGSGGSTYYADSVKGRFTISRDNSKNTLYLQMNSLRAEDTAVYYCAKVRYGWGAGAFDYWGQGTLVTVSSGGGGSGGGGSGGGGSDIQMTQSPSTLSASVGDRVTITCRASQSISSWLAWYQQKPGKAPKLLIYDASSLESGVPSRFSGSGSGTEFTLTISSLQPDDFATYYCQQYDTYPPITFGQGTKVEIK | 0.248 | 9.15e-05 | 369000 | 0.57 | 0.248 | 9.15e-05 | 369000 |  |  |  |  |  |  |  | 
2A5 (scFv) (scFv, also called clone 2A5) scFv: EVQLLESGGGLVQPGGSLRLSCAASGFTFSRYAMNWVRQAPGKGLEWVSAISASGGGTYYADSVKGRFTISRDNSKNTLYLQMNSLRAEDTAVYYCAKVRYGWGAGAFDYWGQGTLVTVSSGGGGSGGGGSGGGGSDIQMTQSPSTLSASVGDRVTITCRASQSISSWLAWYQQKPGKAPKLLIYDASSLESGVPSRFSGSGSGTEFTLTISSLQPDDFATYYCQQYDTYPPITFGQGTKVEIK |  |  |  |  |  |  |  | > 10 | 15.5 | 0.000656 | 42400 | 0.000788 |  |  | 
2C7 (scFv) (scFv, also called clone 2C7) scFv: EVQLLESGGGLVQPGGSLRLSCAASGFTFKLPAMSWVRQAPGKGLEWVSAITGSGGSTYYADSVKGRFTISRDNSKNTLYLQMNSLRAEDTAVYYCAKVRYGWGAGAFDYWGQGTLVTVSSGGGGSGGGGSGGGGSDIQMTQSPSTLSASVGDRVTITCRASQSISSWLAWYQQKPGKAPKLLIYDASSLESGVPSRFSGSGSGTEFTLTISSLQPDDFATYYCQQYDTYPPITFGQGTKVEIK |  |  |  |  |  |  |  | 10 | 5.42 | 0.00041 | 75700 | 0.000501 |  |  | 
1D11 (scFv) (scFv, also called clone 1D11) scFv: EVQLLESGGGLVQPGGSLRLSCAASGFTFGTIPMSWVRQAPGKGLEWVSSISGSAGSTYYADSVKGRFTISRDNSKNTLYLQMNSLRAEDTAVYYCAKVRYGWGAGAFDYWGQGTLVTVSSGGGGSGGGGSGGGGSDIQMTQSPSTLSASVGDRVTITCRASQSISSWLAWYQQKPGKAPKLLIYDASSLESGVPSRFSGSGSGTEFTLTISSLQPDDFATYYCQQYDTYPPITFGQGTKVEIK |  |  |  |  |  |  |  | > 10 | 9.89 | 0.000386 | 39000 | 0.000677 |  |  | 
2D4 (scFv_Fc form) (Fc fusion, not shown: human Fc segment of the eukaryotic expression vector V152) scFv: EVQLLESGGGLVQPGGSLRLSCAASGFTFRKYAMGWVRQAPGKGLEWVSGISGSVGSTYYADSVKGRFTISRDNSKNTLYLQMNSLRAEDTAVYYCAKVRYGWGAGAFDYWGQGTLVTVSSGGGGSGGGGSGGGGSDIQMTQSPSTLSASVGDRVTITCRASQSISSWLAWYQQKPGKAPKLLIYDASSLESGVPSRFSGSGSGTEFTLTISSLQPDDFATYYCQQYDTYPPITFGQGTKVEIK | 0.174 | 0.000113 | 646000 | 0.37 | 0.174 | 0.000113 | 646000 |  |  |  |  |  |  |  | 
5D7 (scFv_Fc form) (Fc fusion, not shown: human Fc segment of the eukaryotic expression vector V152) scFv: EVQLLESGGGLVQPGGSLRLSCAASGFTFSNYAMSWVRQAPGKGLEWVSGIRSSGGRTFYADSVKGRFTISRDNSKNTLYLQMNSLRAEDTAVYYCARVAFSGSFDYWGQGTLVTVSSGGGGSGGGGSGGGGSDIQMTQSPSTLSASVGDRVTITCRASQSISSWLAWYQQKPGKAPKLLIYDASSLESGVPSRFSGSGSGTEFTLTISSLQPDDFATYYCQQRNRYPPTFGQGTKVEIK | 0.335 | 0.000247 | 737000 | 0.56 | 0.335 | 0.000247 | 737000 |  |  |  |  |  |  |  | 
5G3 (scFv_Fc form) (Fc fusion, not shown: human Fc segment of the eukaryotic expression vector V152) scFv: EVQLLESGGGLVQPGGSLRLSCAASGFTFSSYVLSWVRQAPGKGLEWVSAIRGSAGNTYYADSVKGRFTISRDNSKNTLYLQMNSLRAEDTAVYYCARVAFSGSFDYWGQGTLVTVSSGGGGSGGGGSGGGGSDIQMTQSPSTLSASVGDRVTITCRASQSISSWLAWYQQKPGKAPKLLIYDASSLESGVPSRFSGSGSGTEFTLTISSLQPDDFATYYCQQRNRYPPTFGQGTKVEIK |  |  |  | 0.53 | 0.194 | 0.000134 | 690000 |  |  |  |  |  | 0.194 | 0.000134 | 690000
